Usually Cmax stands for the maximum level reached in the sampled fluid or tissue. One may read the IC50 as the concentration at which inhibition is half-maximal. A word on the Ki: it is a measure of affinity in units of concentration, obtained from inhibition or displacement. Read a high Ki as lower affinity.

The text below walks through data of publication PMC7591906, “pHLIP ICG for delineation of tumors and blood flow during fluorescence-guided surgery” (Scientific Reports, 2020).

Structures are written as SMILES. Like-named read-outs stand apart in the source and are kept apart here. Peptide text beside a SMILES is read from it. * marks the point of attachment. X1 = CC1(C)C(/C=C/C=C/C=C/C=C2/N(CCCCCC(=O)NCCN3C(=O)CC(*)C3=O)c3ccc4ccccc4c3C2(C)C)=[N+](CCCCS(=O)(=O)[O-])c2ccc3ccccc3c21

Series [1] in a line: Single-dose and 7-days repeat i.v. toxicity with TK in Beagle dogs (GLP). It is filed as in vivo. As to conditions: for AUC(0-t) / C0: 2.16 mg/kg, daily i.v. bolus 2.16 mg/kg. The method, then: The objectives of this GLP study, performed at CRL, were to determine the potential toxicity of pHLIP ICG, when given by single dose i.v. injection or once daily (i.v. injections) for 7 days in dogs, and to evaluate the potential reversibility of any findings following the single dose injection. In addition, toxicokinetic characteristics of pHLIP ICG were examined.
The following parameters and end points were evaluated in the study: mortality, clinical observations, body weights, food consumption, ophthalmology and electrocardiology assessments, clinical pathology parameters (hematology, coagulation, clinical chemistry, and urinalysis), toxicokinetic parameters, gross necropsy findings, organ weights, and histopathological examinations.

Series [2] has as its target T1, progesterone receptor B (Homo sapiens, UniProt P06401).
T1 construct: purchased Eurofins Panlabs, Inc
T1 sequence (P06401 1-933): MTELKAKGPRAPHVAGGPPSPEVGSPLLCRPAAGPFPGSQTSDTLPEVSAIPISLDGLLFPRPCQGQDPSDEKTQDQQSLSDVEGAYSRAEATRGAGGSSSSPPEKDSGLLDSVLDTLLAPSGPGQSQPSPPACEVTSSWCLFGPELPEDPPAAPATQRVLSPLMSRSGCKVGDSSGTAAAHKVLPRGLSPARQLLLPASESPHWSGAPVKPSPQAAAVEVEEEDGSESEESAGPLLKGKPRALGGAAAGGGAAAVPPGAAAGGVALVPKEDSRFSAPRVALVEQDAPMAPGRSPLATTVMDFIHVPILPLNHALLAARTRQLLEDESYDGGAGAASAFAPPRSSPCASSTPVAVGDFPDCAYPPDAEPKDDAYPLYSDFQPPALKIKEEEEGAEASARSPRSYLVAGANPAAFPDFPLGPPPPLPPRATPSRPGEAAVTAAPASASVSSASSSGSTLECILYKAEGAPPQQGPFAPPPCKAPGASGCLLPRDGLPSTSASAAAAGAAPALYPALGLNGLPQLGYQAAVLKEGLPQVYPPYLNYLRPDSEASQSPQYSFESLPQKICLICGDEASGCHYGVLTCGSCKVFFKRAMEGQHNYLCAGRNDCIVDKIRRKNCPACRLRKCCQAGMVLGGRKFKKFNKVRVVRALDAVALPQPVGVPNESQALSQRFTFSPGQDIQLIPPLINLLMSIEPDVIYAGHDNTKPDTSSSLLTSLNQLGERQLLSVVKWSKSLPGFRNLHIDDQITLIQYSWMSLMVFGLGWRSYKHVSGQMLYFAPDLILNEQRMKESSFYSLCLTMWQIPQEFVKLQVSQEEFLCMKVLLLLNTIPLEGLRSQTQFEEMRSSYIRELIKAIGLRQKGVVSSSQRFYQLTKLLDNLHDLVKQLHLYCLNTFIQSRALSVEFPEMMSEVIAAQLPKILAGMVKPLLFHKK
In words: Progesterone receptor B radioligand binding assay. On the procedure:
The pHLIP ICG enzyme binding assays were performed by Eurofins Panlabs, Inc. according to standard assay protocols. The following enzymes were used in the binding assay with 2 µM of pHLIP ICG : acetyl cholinesterase; peptidase (angiotensin converting enzyme); ATPase (Na^+/K^+, pig heart); CTSG peptidase (cathepsin G); cyclooxygenases COX-1 and COX-2; monoamine oxidases MAO-A and MAO-B; phosphodiesterases PDE3 and PDE4D2; protein tyrosine kinase (insulin receptor); protein tyrosine kinase (LCK); protein serine/threonine kinase (PKC, non-selective); adenosine A1 and A2A; adenosine transporter; adrenergic α1A, α1B, α1D, α2A, α2B, β1 and β2; norepinephrine transporter (NET); androgen (testosterone); angiotensin AT1; bradykinin B2; calcium channels L-type (benzothiazepine, dihydropyridine, phenylalkylamine); calcium channel N-type; cannabinoid CB1 and CB2; chemokine CCR1; cholecystokinin CCK1 (CCKA) and CCK2 (CCKB); dopamine D1, D2L and D2S; dopamine transporter (DAT); endothelin ETA; estrogen ERα; GABA transporter; GABAAs (flunitrazepam, central; Ro-15-1788, hippocampus and chloride channel, TBOB); glucocorticoid; glutamate (AMPA, kainate, agonism NMDA, glycine NMDA, phencyclidine NMDA, polyamine NMDA, and mGlu5 metabotropic); glycine (strychnine-sensitive); histamine H1 and H2; chemokine CXCR2 (IL-8RB); cysteinyl leukotriene (CysLT1); melanocortin MC1 and MC4; muscarinic M1, M2, M3, and M4; tachykinin NK1; neuropeptide Y Y1; nicotinic acetylcholine α1 (bungarotoxin) and α3β4; opiate δ1 (OP1, DOP), κ (OP2, KOP), and μ (OP3, MOP); platelet activating factor (PAF); potassium channels (KATP and hERG); PPARγ; serotonin (5-hydroxytryptamine) 5-HT1A, 5-HT1B, 5-HT2A, 5-HT2B, 5-HT2C, and 5-HT3; serotonin transporter (SERT); sodium channel (site 2); vasopressin V1A; progesterone (PR-B). The most significant inhibitory effect of pHLIP ICG was observed on progesterone B and was followed by an additional study to identify IC50 values, which were determined by a non-linear least square regression analysis using MathIQTM (ID Business Solutions Ltd., UK). The Ki values were calculated by the equation from Cheng and Prusoff [Cheng, Y., Prusoff, W.H., Biochem. Pharmacol. 22:3099-3108, 1973] using the observed IC50 of pHLIP ICG , the concentration of radioligand employed in the assay, and the historical values for the KD of the ligand (Eurofins Panlabs data). The Hill coefficient (nH), defining the slope of the competitive binding curve, was calculated using MathIQTM. The IC50, Ki, and nH values were established for pHLIP ICG and compared to the known progesterone agonist, R-2050 (Figure S3).
Figure SI,3. […]

For `CC(C)C[C@H](NC(=O)[C@H](Cc1ccc(O)cc1)NC(=O)[C@H](C)NC(=O)[C@H](CCCNC(=N)N)NC(=O)[C@H](Cc1c[nH]c2ccccc12)NC(=O)[C@@H]1CCCN1C(=O)[C@H](CC(N)=O)NC(=O)[C@H](CCC(N)=O)NC(=O)[C@H](CC(=O)O)NC(=O)[C@H](CC(=O)O)NC(=O)[C@H](CSC1CC(=O)N(CCNC(=O)CCCCCN2/C(=C/C=C/C=C/C=C/C3=[N+](CCCCS(=O)(=O)[O-])c4ccc5ccccc5c4C3(C)C)C(C)(C)c3c2ccc2ccccc32)C1=O)NC(=O)[C@H](C)N)C(=O)N[C@@H](CC(=O)O)C(=O)N[C@@H](CC(C)C)C(=O)N[C@@H](CC(C)C)C(=O)N[C@@H](Cc1ccccc1)C(=O)N1CCC[C@H]1C(=O)N[C@H](C(=O)N[C@@H](CC(=O)O)C(=O)N[C@H](C(=O)N[C@@H](CC(C)C)C(=O)N[C@@H](CC(C)C)C(=O)N[C@@H](CC(C)C)C(=O)N[C@@H](CC(=O)O)C(=O)N[C@@H](CC(C)C)C(=O)N[C@@H](CC(C)C)C(=O)N[C@@H](Cc1c[nH]c2ccccc12)C(=O)N[C@@H](C)C(=O)O)[C@@H](C)O)[C@@H](C)O` (stereo partly shown) [pHLIP ICG] (H-AC(X1)DDQNPWRAYLDLLFPTDTLLLDLLWA-OH), the Clinical chemistry changes result in series [1] (2.16 mg/kg/day i.v. for 7 days, males and females, non-adverse) is on record as “minimal decreases in cholesterol”. The AUC(0-t) in series [1] (Beagle, dog, in vivo, iv, mean, read-out: AUCTlast, day 1) is 65400 ng·h/mL; in series [1] (Beagle, dog, in vivo, iv, mean, read-out: AUCTlast, day 7), 72300 ng·h/mL. Further, the C0 in series [1] (Beagle, dog, in vivo, iv, mean, read-out: C0, day 1) came to 38400 ng/mL; in series [1] (Beagle, dog, in vivo, iv, mean, read-out: C0, day 7), 42700 ng/mL. Moreover, the Cmax in series [1] (both sexes, Beagle, dog, in vivo, iv, 2.16 mg/kg/day for 7 days, mean, males and females, read-out: Cmax at NOAEL) worked out at 40300 ng/mL. In addition, in series [1] (males and females, 7 days repeated i.v. administration), the NOAEL result is given as “above 2.16 mg/kg/day”. Moreover, the Overall toxicity finding result in series [1] (single i.v. bolus 0.063, 1.08, 2.16 mg/kg or once daily for 7 days at 2.16 mg/kg/day) is listed as “did not adversely affect the overall health or condition of the animals”. Further, in series [2], the 50% inhibitory concentration (IC50) was 640 nM. For the same molecule, the inhibitory constant (Ki) in series [2] was found to be 510 nM.
